Patent US20250090677A1, “ANTI-CDH6 ANTIBODIES AND ANTIBODY-DRUG CONJUGATES THEREOF” (MULTITUDE THERAPEUTICS INC., priority 2021, published 2025)

Key:
[1] = molecular target: T1, recombinant protein CDH6 (Homo sapiens, UniProt P55285); experiment: ELISA binding activity of mouse monoclonal antibodies to CDH6 recombinant protein; details: CDH6 coated 1 μg/mL, FIG. 23
T1 construct: CDH6 extracellular region (Ser 54-Ala 615) was used as an immunogen; purchased ACRO Biosystems CA6-H5229
T1 sequence (P55285 54-615): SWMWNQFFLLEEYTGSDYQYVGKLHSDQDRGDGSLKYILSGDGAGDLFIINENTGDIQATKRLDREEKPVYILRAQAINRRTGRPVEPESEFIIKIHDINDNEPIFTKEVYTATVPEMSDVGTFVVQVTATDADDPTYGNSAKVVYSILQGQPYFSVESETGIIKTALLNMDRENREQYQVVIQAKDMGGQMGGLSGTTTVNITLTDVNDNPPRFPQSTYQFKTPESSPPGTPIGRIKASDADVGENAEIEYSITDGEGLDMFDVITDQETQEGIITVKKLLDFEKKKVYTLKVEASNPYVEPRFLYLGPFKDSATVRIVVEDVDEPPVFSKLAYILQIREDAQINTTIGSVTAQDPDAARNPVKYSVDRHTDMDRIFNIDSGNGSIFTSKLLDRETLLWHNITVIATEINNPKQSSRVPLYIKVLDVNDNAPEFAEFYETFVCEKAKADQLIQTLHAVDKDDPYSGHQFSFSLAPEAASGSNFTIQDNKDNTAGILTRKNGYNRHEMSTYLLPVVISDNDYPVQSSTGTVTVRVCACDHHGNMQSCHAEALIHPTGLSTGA
Experimental: The recombinant protein CDH6 was coated on ELISA plates at 1 μg/mL overnight at 4° C.; after being washed with PBST, the plate was added with 10% fetal bovine serum, and the mixture was blocked at 37° C. for 1 h; the plate was added with 13 monoclonal antibodies of CDH6 with different dilutions (0.1 ng/mL to 100 ng/mL), and the mixture was reacted at 37° C. for 1 h; after being washed with PBST, the plate was added with horseradish peroxidase-labeled goat anti-human IgG secondary antibody (Goat anti Mouse (HRP), Thermo Fisher Scientific), and the mixture was reacted at 37° C. for 30 min; after the plate was repeatedly washed with PBST 5 times, the remaining droplets on the absorbent paper were patted as much as possible; each well of the plate was added with 100 μL of TMB (eBioscience) and placed in the dark at room temperature (20±5° C.) for 1.5 min; each well of the plate was added with 100 μL of 2 N H2SO4 stop buffer for stopping substrate reaction, OD values at 450 nm were read using a microplate reader, and the binding ability of the antibody to the target antigen CDH6 was analyzed. As shown in Table 1 and FIG. 23, the sensitivity of the anti-CDH6 antibody and CDH6 recombinant protein of the present application was not more than 12.5 ng/mL, wherein #13 (CL069463 antibody) was not more than 3.125 ng/mL, #23 (CL069707 antibody) was not more than 1.56 ng/mL, #4 (CL069066 antibody) was not more than 6.3 ng/mL, and #16 (CL069439 antibody) was not more than 1.0 ng/mL.

[2] = test system: OVCAR-3 cells (human ovarian cancer cells); experiment: Flow cytometry recognition of cell-surface CDH6, OVCAR-3 positive cells; type: binding; details: antibody diluted to 20 μg/mL, FCM, FIG. 24
Experimental: (§1) The binding of 13 CDH6 monoclonal antibodies to CDH6 on the cell surface was analyzed by Flow cytometry (FCM) using OVCAR-3 cells (human ovarian cancer cells) as positive cells and HepG2 cells (human hepatoma cells) as negative cells. Cells in the logarithmic growth phase were collected, adjusted to a cell density of 5×10^6 cells/mL, and pre-cooled on ice. 13 CDH6 monoclonal antibodies were diluted to 20 μg/mL in 2% FBS-containing pre-cooled saline. 100 μL of cells were taken and added with an equal volume of the diluted CDH6 monoclonal antibodies described above, and the mixture was reacted at 4° C. for 30 min in the dark. After the reaction was completed, the cells were washed twice with […] pre-cooled saline (6000 rpm, 45 s). The secondary antibody PE anti-mouse IgG (BD Pharmingen) was diluted at 1:500 with 2% FBS-containing pre-cooled saline, and each of the washed cells were resuspended with 100 μL of diluted secondary antibody and reacted for 30 min at 4° C. in the dark. After the reaction was completed, the cells were washed twice with 2% FBS-containing pre-cooled saline (6000 rpm, 45 s). The cells were resuspended in 400 μL of saline. The flow cytometer (BD Calibur) was used to analyze the binding ability of antibodies to cell surface antigens.

[3] = test system: HepG2 cells (human hepatoma cells); experiment: Flow cytometry, HepG2 negative cells; type: binding; details: antibody diluted to 20 μg/mL, FCM
Experimental: as §1

[4] = Aggregation of antibody-drug conjugate by SEC-HPLC (common procedure G); type: physicochemical
From the text: The aggregation in the antibody-drug conjugate can be determined by size exclusion chromatography (SEC) in high-performance liquid chromatography (HPLC) analysis using the following method. • HPLC system: Agilent 1260 Infinity II HPLC system (Agilent Technologies, Inc.) • Detector: Ultraviolet absorption spectrometer (measurement wavelength: 280 nm) • SEC-Column: TOSOH TSKgel G3000SWXL (7.8×300 mm, 5 μm) • Mobile phase: 200 mmol/L KHPO4, 150 mmol/L NaCl, 15% (v/v) isopropanol, pH7.0 • Flow rate: 0.75 mL/min • Isocratic Operation: 18 min • Column temperature: room temperature • Sample injection: 50 μg
The SEC chromatogram of quality control (QC, CL069707-H1L1) was shown in FIG. 5A, it is confirmed that the molecular weight of the main QC product is about 150 kDa and the monomer retention time is around 9.5-10.5 min. Meanwhile, the retention time of aggregation is earlier than that of monomer.

[5] = Hydrophilicity of antibody-drug conjugate by HIC-HPLC (common procedure H); type: physicochemical; details: shorter retention time = better hydrophilicity
From the text: The Hydrophilicity of the antibody-drug conjugate can be determined by hydrophobic interaction chromatography (HIC) in high-performance liquid chromatography (HPLC) analysis using the following method. • HPLC system: Agilent 1260 Infinity II HPLC system (Agilent Technologies, Inc.) • Detector: Ultraviolet absorption spectrometer (measurement wavelength: 280 nm) • HIC-Column: TOSOH TSKgel Butyl-NPR (4.6 mm I.D.×3.5 cm, 2.5 μm) • Mobile phase A: 1.5 mol/L (NH4)2SO4, 50 mmol/L KHPO4, pH7.0 • Mobile phase B: 50 mmol/L KHPO4, 25% (v/v) isopropanol, pH7.0 • Isocratic Operation: 25 min • Column temperature: room temperature • Gradient program (B %): 0%-25% (0 min-1 min), 25% (1 min-3 min), 25%-80% (3 min-13 min), 80% (13 min-17 min), 80%-0% (17 min-17.10 min), 0% (17.10 min-25 min) • Sample injection: 10 μL
It is confirmed that the shorter the retention time, the better of the sample's hydrophilicity

[6] = test system: Renal Carcinoma Patient-Derived Xenograft (PDX); experiment: In vivo antitumor effect in renal carcinoma patient-derived xenograft (PDX) model; design: species or system mice; details: 10 mg/kg intravenous, compared with IgG-LP1 or IgG-GGFG-DXd, FIG. 21A
Experimental: 6-8 weeks Nu/Nu mice were purchased from Zhejiang Charles River Co., Ltd. The tumors were sliced into 3 mm×3 mm×3 mm (about 50-90 mg) fragments and implanted subcutaneously into the right flank of mice. Then the animals were checked daily for tumor growth and body weight. The mice were randomized into 5 groups when mean tumor volume reaches ˜150 mm^3. The grouping day was regarded as day 0. Mice were then injected intravenous with 10 mg/kg of one of the following substances:10 mg/kg IgG-LP1, CL069707-H1L1-LP1, IgG-GGFG-DXd, Reference ADC and Reference Antibody-LP1. Tumor volumes were measured two times per week from day of treatment initiation by Caliper and calculated as follows: […].

B1: CL069707: mouse anti-CDH6 monoclonal antibody; VH SEQ ID NO: 18, VL SEQ ID NO: 23 (antibody, V domains shown)
VH: EVHLVESGGGLVQPKGSLKLSCVASGFTFTTYAMNWVRQAPGKGLEWVARIRIKNNNYATYYADSVTDRFTISRDDSQSMLYLQMNNLKTEDTAMYYCVRPDYGNYGLAYWGQGTLVTVSA
VL: EIVLTQSPTTMAASPGEKITITCSASSSISSHYLHWYQQKPGFSPKLLIYRSFYLASGVPLRFTGSGSGTSYSLTIGTMEAEDVATYYCQQDIVPLTFGAGTKLELK
modifications: CL069707 VH; Ch069707 VH; CL069707 VL; Ch069707 VL
In the case of B1, the “sensitivity of the anti-CDH6 antibody and CDH6 recombinant protein (ELISA)” value (“sensitivity” for short) [1] is reported as “not more than 1.56 ng/mL”, the “specific recognition of OVCAR-3 cells (positive cells)” value [2] is reported as “capable of specifically recognizing” and the “binding to negative cells HepG2” value [3] is reported as “no binding was observed”.

B2: CL069066: mouse anti-CDH6 monoclonal antibody; VH SEQ ID NO: 95, VL SEQ ID NO: 96 (antibody, V domains shown)
VH: EVKLLESGGGLVQPGGSLKLSCAASGFDFSRYWMTWVRQAPGKGLEWIGEINPDSSTINYTPSLKDKFIISRDNAKNTLYLQMNKVTSEDTALYYCTRRPHYYGYFDSWGQGTTLTVSS
VL: DIVLTQSPASLAVSLGQRATISCRASESVEYYGTTLMQWYQQKPGQPPQLLIYAGSNVESGVPARFSGSGSGTEFSLNIHPVEEDDIGMYFCQQSRKVPWTFGGGTKLEIK
modifications: CL069066 VH; Ch069066 VH; CL069066 VL; Ch069066 VL
In the case of B2, the “sensitivity” value [1] is reported as “not more than 6.3 ng/mL”.

B3: CL069463: mouse anti-CDH6 monoclonal antibody; VH SEQ ID NO: 41, VL SEQ ID NO: 46 (antibody, V domains shown)
VH: EVQLVESGGGLVQPKGSLKLSCAASGFTFNTYALTWVRQAPGKGLEWVGRIKSKNKDYETYYADSVKDRFTISRNDSQSLLYLQMNNLKTEDTAIYYCVRQNWNYFDYWGQGTTLTVSS
VL: DIQMTQSPASLAASVGETVTITCRASENIYYSLAWYQQRQGKSPQLLIYNANSLKDGVPSRFSGSGSGTQYSMKINSMQPEDTATYFCQQAYDVPPTFGGGTKLEIK
modifications: CL069463 VH; Ch069463 VH; CL069463 VL; Ch069463 VL
With B3 the “sensitivity” value [1] was “not more than 3.125 ng/mL”, the “specific recognition of OVCAR-3 cells (positive cells)” value [2] was “capable of specifically recognizing” and the “binding to negative cells HepG2” value [3] was “no binding was observed”.

B4: DS-6000a (conjugate, chains of the INN, looked up)
VH: EVQLVQSGAEVKKPGASVKVSCKASGYTFTRNFMHWVRQAPGQGLEWMGWIYPGDGETEYAQKFQGRVTITADTSTSTAYMELSSLRSEDTAVYYCARGVYGGFAGGYFDFWGQGTLVTVSS
VL: DIQMTQSPSSLSASVGDRVTITCKASQNIYKNLAWYQQKPGKAPKLLIYDANTLQTGVPSRFSGSGSGSDFTLTISSLQPEDFATYFCQQYYSGWAFGQGTKVEIK
modifications: deruxtecan payload
With B4 the “aggregation of the antibody-drug conjugate measured by common procedure G” value [4] was 2.68%, the “retention time of the antibody-drug conjugate measured by common procedure H” value [5] was 7.672 min and the “tumor volume / tumor growth inhibition” value [6] was “no tumor growth inhibition activity”.

B5: CL069439: mouse anti-CDH6 monoclonal antibody; VH SEQ ID NO: 103, VL SEQ ID NO: 104 (antibody, V domains shown)
VH: EVQLQQSGTELVRTGASVKISCKASGYSFTGYYIHWIKQSHGESLEWIGYISCFNGDTSYNQNFKDRATFNVDTSSSTAYMQFISLTSEDSAVYYCVRGRYGNFNYFDYWGQGTTLTVSS
VL: DIVLTQSPASLAVSLGQRATISCRASESVEFYGTSLMQWFQQKPGHPPQLLIYATSNVDSGVPARFSASGSGTDFSLNIHPVEEADIAMYFCQQSRRIPWTFGGGTKLEIK
modifications: CL069439 VH; Ch069439 VH; CL069439 VL; Ch069439 VL
In the case of B5, the “sensitivity” value [1] is reported as “not more than 1.0 ng/mL”.
